From US20250147051A1 (GTINVENT, published 2025)
Substitutions are numbered along the chain they refer to. Where two headings read alike, the source gives them in different places.

B1: CE3 scAb (scFv)
scFv: QVRLQESGPSLVKPSQTLSVTCTVSGFSLISNAVGWVRQAPGKVPESLAGCSSDGKCYYNSALKSRLDITRDTSKNQISLSLSSVTTDDAAVYYCTRGYYPVYGYDYLGTIDYWGPGLLVTVSSEGKSSGASGESKVDDQAVLTQPSSVSGSLGQRVSITCSGSSSNVGRNDVAWFQQLPGSGLRTIIYGTTSRPSGIPDRFSGSKSGVTATLTIDSLQAEDEADYFCASGDSSAINDIFGSGTRLTVLG
notes: scAb (scFv-HuCk-His)
B2: CC7 mAb (antibody, mouse IgG2a, V domains shown)
VH: QVQLQESGPSLVKPSQTLSLTCTVSGFSLTSNAVIWVRQAPGKAPEWVALIDVDGDAAYDPALKSRLSITRDTSKSQVSLSLRSVTTEDTAVYYCARDYGSWGYVSDIDYWGPGLLVTVSS
VL: RVVRTQPSSVSGSLGQRVSITCSGSYITGSSVGWFQQVPGSGLKTVIYDNNDRPSGVPDRFSGSKSGDTATLTISSLQAEDEADYYCASYDTSNIGLFGSGTRLTVLG
notes: also called CC7 antibody
B3: CB3 scAb (scFv)
scFv: QVQLQESGPSLVKPSQTLSLTCTVSGFSLSSVAVNWVRQAPGKVPEWLGGIISNGGTGYNPALKSRLSITRDTSKSQVSLALTHVTTEDTAVYYCGRGVEWEGSMDYLGPGLLVTVSSEGKSSGSGSETKVDDQSVLTQPSSVSGFLGQRVTITCSGSSSNVGAGSYVGWYQQVPGSGLRILIYGATKRASGLPDRFSGSRSGNTATLTISSLQAEDEADYYCVSYQTDFTLVFGSGTRLTVLG
notes: scAb (scFv-HuCk-His)
B4: 412E10 scAb (scFv)
scFv: QVQLQESGPSLVKPSQTLSLTCTVSGFSVISDSVAWVRQAPGKVPEWLGASGSSGNKYYNPALKSRLSITRDTSKSQVSLSLSSVTTEDTAVYYCARGIIAGVDVWGRGLLVTVSSEGKSSGASGESKVDDQAVLTQPSSVSGSLGQRVSITCSGSSSNVGYGNYVGWYQQVPGSAPKLLIYGTAIRASGVPDRFSGSRSGDTATLTITSLQAEDEADYYCASYQSNYAFFGSGTRLTVLG
notes: scAb (scFv-HuCk-His)
B5: 412G11 (scFv)
scAb: QVRLQESGPSLVKPSQTLSLTCTVSGFSLTSYALGWVRQAPGRAPEWIGNIWRGGRIEYNPALKSRLSITRDTSKSQVSLSLSSVTTEDTAVYYCSRSGGDWGPGLLVTVSSEGKSSGASGESKVDDQAVLTQPSSVSGSLGQRVSITCSGSSSNVGYGNYVGWYQQVPGSAPKLLIYGATSRASGVPDRFSGSRSENTATLTISSLQAEDEADYYCASYDRSESVVFGSGTRLTVLG
B6: CB7 mAb (antibody, mouse IgG2a, V domains shown)
VH: QVQLQESGPSLVKPSQTLSLTCTVSGFSLTNYRVGWVRQAPGKALEWVSNIRSGGTTWYNPALKSRLSITADTSKSQVSLSLSSVTTEDTAVYYCARDSSGDLYAYDYWGPGLLVTVSS
VL: QAVLTQPSSVSRSLGQSVSMTCSGSSSNVGYGNYMAWFQQVPGSAPKLLIYGATSRASGVPDRFSGSRSGNTATLTISSLQAEDEADYYCASYDSTSGGVFGSGTRLTVLG
notes: also called CB7 antibody
B7: CB7 scAb (scFv)
scFv: QVQLQESGPSLVKPSQTLSLTCTVSGFSLTNYRVGWVRQAPGKALEWVSNIRSGGTTWYNPALKSRLSITADTSKSQVSLSLSSVTTEDTAVYYCARDSSGDLYAYDYWGPGLLVTVSSEGKSSGASGESKVDDQAVLTQPSSVSRSLGQSVSMTCSGSSSNVGYGNYMAWFQQVPGSAPKLLIYGATSRASGVPDRFSGSRSGNTATLTISSLQAEDEADYYCASYDSTSGGVFGSGTRLTVLG
notes: scAb (scFv-HuCk-His)
B8: S1G10 scAb (scFv)
scFv: QVQLQESGPSLVKPSQTLSLTCTVSGFSLTSNSVGWVRQAPGKAPEWVAGIDTDGEEGYNPALNSRLSITRDTSKSQVSLSLSSVTSEDTAVYYCGRSYRADGLAYGYVQAIDYWGPGLLVTVSSEGKSSGASGESKVDDQAVLTQPSSMSGSLGQRVSITCSGSFIGISSVGWFQQLPGSGLRTIIVASDGRPSGVPDRFSMSKSGNTATLTISSLQAEDEADYFCGSSDRTQYTGVFGSGTRLTVLG
notes: scAb (scFv-HuCk-His)
B9: CA9 scAb (scFv)
scFv: B8 scFv with A101S, S148A, M150V
notes: scAb (scFv-HuCk-His)
B10: S1G2 scAb (scFv)
scFv: B8 scFv with L144V, M150V, Q234P
notes: scAb (scFv-HuCk-His)
B11: CC7 scAb (scFv)
scFv: QVQLQESGPSLVKPSQTLSLTCTVSGFSLTSNAVIWVRQAPGKAPEWVALIDVDGDAAYDPALKSRLSITRDTSKSQVSLSLRSVTTEDTAVYYCARDYGSWGYVSDIDYWGPGLLVTVSSEGKSSGASGESKVDDRVVRTQPSSVSGSLGQRVSITCSGSYITGSSVGWFQQVPGSGLKTVIYDNNDRPSGVPDRFSGSKSGDTATLTISSLQAEDEADYYCASYDTSNIGLFGSGTRLTVLG
notes: scAb (scFv-HuCk-His)
B12: CA4 scAb (scFv)
scFv: QVQLQESGPSLVKPSQTLSLTCTVSGFSLTSYSVYWVRQAPGQALEWISIMYASGRVDYNPALKSRLSITRDTSKSQFSLSLSSVTTEDTAVYYCTRGIENWGPGLLVTVSSEGKSSGASGESKVDDDIQVTQSPSSLSASLTERVSITCRTSQSVNNYLSWYQQKPGQAPKLLIYYATRLYTDVPSRFSGSGSGTDYTLTITSLEADDTATYYCLQYDSTPLAFGGGTNVEIK
notes: scAb (scFv-HuCk-His)

Columns and labels:
DGAE + LMT Agg [1] = target: T1, DGAE + LMT Agg; assay: sandwich ELISA, 423 mAb capture, dGAE species titrated, scAb detection at 10 ug/ml [D00041 Figure 34O]
T1 construct: also called dGAE agitated in the presence of LMTM (Total, Supernatant, Pellet)
Method: (§1) For preparing the aggregates, 10 μl 10 mM DTT was added to 1000 μl 100 μM dGAE and agitated with/without LMTM (1:5 ratio) at 700 rpm for 24 h at 37° C. Following overnight agitation, one third of each sample was kept aside as ‘total’ and the rest was spun down at 16000×g for 30 min and separated into ‘supernatant’ and ‘pellet’. The pellet was then resuspended in half the original volume for further experiments. […] Doubling dilutions of dGAE aggregate ‘total’, ‘supernatant’ and ‘pellet’ samples at 10 μg/ml starting concentration were added to designated wells in doubling dilutions in 1×PBS. dGAE monomer (non-aggregated) was included as assay control. All double dilutions were done in final volumes of 100 μl. This was left to incubate on lab bench for 1 h followed by the addition of test scAbs at 10 μg/ml.

[2] = target: T2, mouse tau (Isoform Tau-A) (mouse, UniProt P10637 2-733); assay: Western blot of brain homogenates
T2 construct: endogenous protein in mouse brain homogenate or plasma; isoform in the samples not determined; also called endogenous mouse tau

[3] = target: T3, human tau 296-390 (Line 1 transgene fragment) (human, UniProt P10636 613-707); assay: Western blot of brain homogenates
T3 construct: also called L1 fragment; 10-kDa tau fragment

[4] = target: T4, full length human tau protein 2N4R (hT40) (human, UniProt P10636 1-758); assay: direct ELISA, coated hT40
T4 construct: recombinant protein; also called T441

[5] = target: T4, full length human tau protein 2N4R …; assay: sandwich ELISA, S1D12 mAb capture, colourimetric detection
Method: (§2) Full length tau (hT40), at 1 μg/ml starting concentration was added to designated wells and double diluted across rest of the plates and left to incubate at R/T for 1 h. A series of detection scAbs with varying epitope recognition properties were added at 10 μg/ml to designated wells (FIG. 22). For colourimetric detection HRP conjugated anti-HuCk secondary antibody was used and the resulting immunoreaction was developed and absorbance at 450 nm measured as described previously. Cut-off point for a positive binding event was an absorbance value of 0.3 following background subtraction. In order to enhance the assay sensitivity, a chemiluminescent detection method was adopted where 50 μL SuperSignal ELISA Femto Substrate (Thermo Scientific) was added to each well following incubation with anti-HuCK HRP antibody and subsequent washing. The luminescence was read using Clariostar Plus microplate reader. A further modification to this protocol was done where various detection scAbs were directly conjugated with HRP and detected using chemiluminescent protocol as before.

[6] = target: T4, full length human tau protein 2N4R …; assay: sandwich ELISA, S1D12 mAb capture, chemiluminescence detection
Method: as §2

[7] = target: T4, full length human tau protein 2N4R …; assay: direct ELISA, coated hT40; remark: listed apart in the source
DGAE + LMT Agg [8] = target: T1, DGAE + LMT Agg; assay: sandwich ELISA, 423 mAb capture, dGAE species titrated, scAb detection at 10 ug/ml [D00039 Figure 34F]
Method: as §1

T4 sequence (P10636 other isoform, or with tags, fused parts or gaps limits assumed): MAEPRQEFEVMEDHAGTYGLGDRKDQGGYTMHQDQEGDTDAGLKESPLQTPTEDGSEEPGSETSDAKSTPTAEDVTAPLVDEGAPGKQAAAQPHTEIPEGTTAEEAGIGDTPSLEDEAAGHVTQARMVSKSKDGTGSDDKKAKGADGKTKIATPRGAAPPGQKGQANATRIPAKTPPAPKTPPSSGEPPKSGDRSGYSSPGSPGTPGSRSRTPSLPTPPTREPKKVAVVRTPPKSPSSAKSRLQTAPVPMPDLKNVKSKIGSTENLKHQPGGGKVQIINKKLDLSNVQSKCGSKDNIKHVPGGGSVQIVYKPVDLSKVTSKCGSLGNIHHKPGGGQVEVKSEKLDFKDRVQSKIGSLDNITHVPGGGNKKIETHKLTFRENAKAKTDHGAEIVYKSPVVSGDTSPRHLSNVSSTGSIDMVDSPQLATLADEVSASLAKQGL
T1 sequence (fragment, as listed by the source limits assumed): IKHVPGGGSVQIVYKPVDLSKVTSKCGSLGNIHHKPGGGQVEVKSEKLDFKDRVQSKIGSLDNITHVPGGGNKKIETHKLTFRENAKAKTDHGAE
T3 sequence (P10636 613-707): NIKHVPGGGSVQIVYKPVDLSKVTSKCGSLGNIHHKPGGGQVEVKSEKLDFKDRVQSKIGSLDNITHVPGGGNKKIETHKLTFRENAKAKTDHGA
T2 sequence (P10637 other isoform, or with tags, fused parts or gaps limits assumed): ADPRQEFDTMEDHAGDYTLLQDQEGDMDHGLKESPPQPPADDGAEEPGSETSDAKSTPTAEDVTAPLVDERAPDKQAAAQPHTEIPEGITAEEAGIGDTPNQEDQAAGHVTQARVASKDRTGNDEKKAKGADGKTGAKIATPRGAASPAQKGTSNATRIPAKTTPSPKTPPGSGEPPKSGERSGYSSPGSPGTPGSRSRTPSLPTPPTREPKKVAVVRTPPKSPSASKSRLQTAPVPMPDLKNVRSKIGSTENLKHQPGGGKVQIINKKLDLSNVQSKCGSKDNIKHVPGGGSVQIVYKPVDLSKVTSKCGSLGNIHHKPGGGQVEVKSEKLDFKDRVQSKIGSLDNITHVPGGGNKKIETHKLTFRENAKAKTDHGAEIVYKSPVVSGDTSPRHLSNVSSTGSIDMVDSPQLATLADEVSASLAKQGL

| Binder | LoD [5] [ng/mL] | LoD [6] [ng/mL] | also measured |
| --- | --- | --- | --- |
| B1 |  |  | binding result (DGAE + LMT Agg [1]): binds |
| B2 |  |  | binding result [2]: no binding (tested: 20 µg brain protein); binding result [3]: no binding (tested: 20 µg brain protein) |
| B3 |  |  | EC50 (read off the curve) [4]: ~0.1 µg/mL |
| B4 | 20 | 0.37 |  |
| B5 |  |  | EC50 (read off the curve) [7]: ~6 µg/mL |
| B6 |  |  | binding result [2]: no binding (tested: 20 µg brain protein); binding result [3]: no binding (tested: 20 µg brain protein) |
| B7 | 15 | 3.33 |  |
| B8 | 2 | 0.12 |  |
| B9 |  |  | binding result (DGAE + LMT Agg [8]): binds |
| B10 |  | 0.12 |  |
| B11 | 6 | 3.33 |  |
| B12 | 6 | 0.37 |  |
